Results published in the supplement of paper PMC9170038.

Tested on: MS2 coat protein
Assay: apparent KD of MS2 coat protein; higher = weaker reporter binding
Conditions: Eterna round: R107
Procedure, shortened: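 Apparent KD was obtained for each design as the median of normalised binding-curve fits over its clusters. RNA switches transcribed on-chip from Illumina sequencing clusters were titrated with SNAP-549-labelled MS2 coat protein (twofold steps, 0.7 or 1.5 nM to 3 µM) in 100 mM Tris-HCl pH 7.5, 80 mM KCl, 4 mM MgCl2, without or with constant ligand.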

[1] = input ligand: theophylline 20 uM
[2] = input ligand: theophylline 2 mM
[3] = input ligand: tryptophan 2.4 mM

Row | Sequence | apparent KD of MS2 coat protein (input ligand: arginine 13.2 mM) [nM] | apparent KD of MS2 coat protein (input ligand: none) [nM] | apparent KD of MS2 coat protein [1] [nM] | apparent KD of MS2 coat protein [2] [nM] | apparent KD of MS2 coat protein [3] [nM]
1 | CUCUGAGUGAGGAAUCACUCAGAGGCGGAUACCAGCGAGGUCCAUCGCCCUUGGCAGCCGAACAUGAGGAUCACCCAUGUCGGUA [#1 Same State - Theophylline A Attempt #23 (HarryS)] | 9.44 | 9.45 | 12.1 | 13.5 | 9.3
2 | CAAUAUAUAUGAAGGAGCGUCGAAAAUGGGUAAACAUGAGGAUCACCCAUGUAAAGGGAACGACAGGUAGGUCGCAUAUAUAUUG [AstromonsSSArgB#8] | 117 | 168 | 305 | 218 | 192
3 | AGCGACAUGCGUGAUACCAGCUACAUGAGGAUCACCCAUGUCAGCAGGGAACUGCUGUGUAGCCCUUGGCAGCACAGUGCAUGUC [Exclusion - Theophylline B (Freestyle 29)] | 13 | 10.8 | 12.3 | 23.1 | 10.2
4 | ACAUGAGGAUCACCCAUGUUCCUCAUUGAUACCAGUGAAUUUAGACGCCCUUGGCAGCGAGUUUUUUAAGAAGAAGUUUUUUUUU [6.E] | 551 | – | 793 | – | 992
5 | UGUCGAAACUGAAGGAGCGAGAUGACAAACAUGAGGAUCACCCAUGUUAUGGGUUGUUAAUCUCAGGUAGGUCGCAGUGACAAAA [Same State Arginine B GF 16] | 88.2 | 106 | 86.8 | 150 | 103
6 | UGUAUGUGAUCUGAUACCAGCCUCAUAGCUUGAGGAUCACCCAAGUGGAGCGGAAACGCUGGCCCUUGGCAGCAGAUCGCAUACU [TheoBS 1 #AlternativeMS2] | 252 | 471 | 199 | 13.5 | 516
7 | AAACAUUGCUCAGAUACCAGACAUGAGGAUCACCCAUGUACCAAGGUAAAGAAAUAACGUGUCCCUUGGCAGCUGAGCAAUGAAA [MAT - Exclusion Theophlline B - Mod of Eli - D10] | 11.5 | – | 12.8 | – | 10.9
8 | UGACAUUGCUCAGAUACCAGACGUGAGGAUCACCCACGUGCCAACAAGUACAUAAUAAAUGUCCCUUGGCAGCUGAGCAAUGUCU [TheoBX 17 #MS2Left #Theo2 #AlternativeMS2] | 16.4 | 11.2 | 15.2 | 15.1 | 10.9
9 | GGACUAACCUGAAGGAGCGGCACGCAGAAACUGCAAAUUCCUCCACACGAGGAUCACCCGUGUCAGGUAGGUCGCAGGUUAGUCG [ArgBX 28] | 18 | 17.1 | 23.3 | 22.9 | 20.3
10 | AGAGUCAGACAAAAGUCUGGCUCAGCCGAAGGAGCGUCCGAAAGGACAGGUAGGUCGCGGUUACAUGAGGAUCACCCAUGUUCCU [ArgAS 7 #OpenEnded] | 66.8 | 136 | 177 | 184 | 145
11 | CUUCAGGGUGCGGCCGCCACUUAUUAGGUGCUUGCGACGCCAGCACAUGAGGAUCACCCAUGUUCAAGGACCGGGCACCACCUUU [theeternabot_sameState_MS2_Trp_B_21] | 8.14 | – | 20 | 15.1 | –
12 | UUCAAAGGGAACGGUGCUGGUAACAGAGAUACCAGAGUAAUAAUACUCCCUUGGCAGCUCAUAACAUGAGGAUCACCCAUGUAAU [Exclusion Theophylline A GF21] | 12.4 | – | 17.4 | – | 13.5
13 | GGUUACUCUACGGCCGCCACUGUUAAAUAAUAAACCUGUACAUAAACAUGAGGAUCACCCAUGUACAGGACCGGGUAGUGUAACC [Tryptophan B 8] | 27.6 | – | 41 | 35 | –
14 | GAUAUAUAGGCGGCCGCCACUGAUUUUCAUAUAUAUAUAACAUGAGGAUCACCCAUGUAGAUAUACAGGACCGGGCCUAUAUAUU [aaaB] | 15.5 | – | 16 | 16 | –
15 | ACACAUGAUAGAAGGAGCGCAAUGAACACACAUGAGGAUCACCCAUGUUUUUUUUGUGUUUUGCAGGUAGGUCGCUAACAUGAGG [Same State Arginine B 4] | 11 | 8.66 | 23.6 | 11 | 8.32
16 | CGAUACAAAUAAAGCGUUCGUCCGCCAGAUACCAGAUUCAUUUCCAUCCCUUGGCAGCUGUCGACAUGAGGAUCACCCAUGUUUG [theeternabot_exclusion_MS2_Theo_A_41] | 17.2 | – | 21.7 | – | 19.9
17 | AGAUGCCACUGUGGAUAGCACGAUGCCGAUACCAGCUAGGAAACUAGCCCUUGGCAGCGGUACAUGAGGAUCACCCAUGUAUCCU [EThA NP+V+V2 #9] | 12.2 | – | 18.3 | – | 12.9
18 | GAGCUGAUGUAGAAAUUUUAUUUCUGAGAUACCAGUACAGAAAUGUACCCUUGGCAGCUCAGUUUUACAUGAGGAUCACCCAUGU [Ex Theophylline A 15] | 14.8 | – | 15.6 | – | 13.1
19 | GAUCGACAAAACGUCUAGGAAAACUAGACGCGAGGACCGGUACGGCCGCCACUCGUCCUCACAUGAGGAUCACCCAUGUACGAUC [#SwitchBubble 2 #CuTurnoff] | 30.3 | – | 43.2 | 46.3 | –
